The source of these data is the nanobody polyreactivity screen of Harvey et al. (2022).

The data set can be described thus: yeast display, Sf9 membrane polyspecificity reagent, FACS + sequencing; frameworks hold sequencing errors. In a few lines: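 Genes from sorted yeast were amplified by colony PCR, read by MiSeq 2 × 250 sequencing and filtered on CDR length. These cells carried a synthetic nanobody library in Saccharomyces cerevisiae BJ5465 and were sorted by FACS into low and high (top ~1%) gates on anti-HA and streptavidin fluorescence. Polyreactivity is labelled according to the gate of origin.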
For the sequence “QVQLVESGGGLVQAGGSLRLSCAASGSIFPYYTMGWYRQAPGKERELVATITTGGSTNYADSVKGRFTISRDNAENTVYLQMNCLKPEDIAVYYCNKDGVVEVRFTGRQEYDYWGQGTQVTVSS”, the “polyreactivity (PSR sort gate)” value was “low polyreactivity”.

As to “QVQLVESGGGLVQAGGSLRISCAASGSIFRRYAMGWYSQAPGKERDLVATISSVTTTNYADSVKGRFTISRDNANNTVYLQMNSLKPEDTSVFYCAAVVYGQRRGPGQRKSYWGQGTQVTVSS”, the “polyreactivity (PSR sort gate)” value was “high polyreactivity”. Take “QVHLVESGGGLVQAGGSLRLSCAASGSIFSVNDMGWYRQAPGKERELVAAISSGGSTNYADSVKGRFTISRDNAKNTVSLQMNSLKPEDTAVYYCAADFYVVYWGTYSVGYDYWGQGTQVTVSS”: the “polyreactivity (PSR sort gate)” value was “low polyreactivity”.

With “QVQLVESGGGLVQAGGSLRLSCAASGRTFGRNAMGWYRQAPGKERELVAAINSGGSTKYADSVKGRFTISRDNAKNTVYLQMNSLKPEDTAVYYCARRGGFSYYYWGQGTQVTVSS”, the “polyreactivity (PSR sort gate)” value was “high polyreactivity”. As to “QVQLVESGGGLVQAGGSLRLSCAASGGTFAVYAMGWYRQAPGKERELVAAIDSGGRTNYADSVKGRFTISRDNAKNTVYLQMNSLKPEDTAVYYCAADGGGQYVRYDYWGQGTQVTVSS”, the “polyreactivity (PSR sort gate)” value is “high polyreactivity”. As for “QVQLVESGGGLVQAGGSLRLTCAASGRSFRRYAMGWYREAPGKERELVAAITWRGSSTYYADSVKGRFTISRDNAKNTVYLQMNSLKPEDTAVYYCAADIGYTYEYYYWGQGTQVTLSS”, the “polyreactivity (PSR sort gate)” value was “high polyreactivity”.

As for “QVQLVESGGGLVQAGGSLRLSCAASGFIYGYYAKGWYRQAPGKARELVAAISYSGGSTYYADSVKGRFTISRDNAKNTVYLQKNSLKPEDSAVYYCAAVYLGYIYSRYDYWGQGTQVTVSS”, the “polyreactivity (PSR sort gate)” value is recorded as “low polyreactivity”. The entry for “QVQLVESGGGLVQAGGSLRLSCAASGSIFGAYAMGWYRQAPGKERELVAAISGSGTSTYYADSVKGRFTISRDNAKNTVYLQMNSLKPEDTAVYYCATAKLTWRSQGLDYWGQGTQVTVSS” is “low polyreactivity”; for “QVQLVESGGGLVQAGGSLRLSCAASGRTFESNAMGWYRQAPGKERELVAAISYGGGTTHYADSVKGRFTISRDNAKNTVYLQMNSLKPEDTAVYYCAADPEHQWESVTIGEYDYWGQGTQVTVSS” it is “low polyreactivity”. Take “QVQLVESGGGLVQAGGSLRLSCAASGRIFYYYAMGWYRQAPGKERELVAAISWRGTSTYYADSVKGRFTISRDNAKNTVYLQMNSLKPEDTAVYYCAARYTKGMYYWGQGTQVSVSS”: the “polyreactivity (PSR sort gate)” value was “high polyreactivity”. With “QVQHVESGGGLVQAGGSLRLSCAASGSTFYRNTKGWYRQAPGKETELVAAISRSGGSTYYADSVKGRFTISRDNAKNTVYVQMNSLKPEDTAVYYCNADYTDYQTYSATTYEYWGQGTQVTVSS”, the “polyreactivity (PSR sort gate)” value is listed as “low polyreactivity”.

With “QVQLVESGRGLVQAGGSLRLSCAASGRTFRWYAMGWYRKAPGKERELVAAISGSGDRTYYADSVKGRFTISRDNAKNTVYLQMYSLKPVDTAVYYCYKAYLLYYTYARGDYWGQGTQVTVSS”, the “polyreactivity (PSR sort gate)” value is listed as “high polyreactivity”. On to “QVQLVESGGGLVQAGGSLRLSCAASGRIFAYYTMGWYRQAPGKERELVAAISGSSGRTYYADSVKGRFTISRDNAKNTVYLQMNSLKPEDTAVYYCAARGFSFWRYYYWGQGTQVTVSS”, for which the “polyreactivity (PSR sort gate)” value is “high polyreactivity”.

As to “QVQLVESGGGLVQAGGSVRLSCAASGFISPSYAMGWYRQAPGKERELVAAITTSGGSTYYADSVKGRFTISRDNAKNTVYLQMNSLIPEDTAVYYCAAVGPDNSLYEPMDYWGQGTQVTVSS”, the “polyreactivity (PSR sort gate)” value is listed as “low polyreactivity”. The entry for “QVQLVESGGGLVQAGGSLRLSCAASGRTFGTNAMVWYRQAPGKERELVAAITWRGGSTSYADSVKGRFTISRDNAKNTVYLQMNSLKPEDSAVYYCAVRLRYPGNTFYYWGQGTQVTVSS” is “high polyreactivity”. The entry for “QVQLVESGGGLVQAGGSLRLSCAASGRTLAPYAMGWYRQAPGKERELVAISTIGGSTYYADSVKGRFTISRDNAKNTVFLQMNSLKPEDTAVYYCNADATDSYPEKDEHDSWGQGTQVTVSS” is “low polyreactivity”; for “QVQLVDSGGGLVQAGGSLRLICAASGSTFYHYAMGWYRQAPGKERELVAAISSSGGRTYYADSVKGRFTISRDNAKNTVYLQMNSLKPEDTAVYYCAARAKTSGSIEDYWGQGTQVTVSS” it is “high polyreactivity”; for “QVQLVESGGGLVQAGGSLRLSCAASGFIFLFYAMGWYRQAPGKERELVAAISSGVSTNYADSVKGRFTISRDNAKNTVYLQMNSLKPEDTAVYYCNTTQSTSLLYDYWGQGTQVTVSS” it is “low polyreactivity”. For “QVQLVESGGGLVQAGGSLRLSCAASGSTSDYYAMGWYRQAPGKERELVAAISWSGGSTYYADSVKGRFTISRDNAKNTVYLQMISLKPEDNAVYYCAAQHYNFSGPFEYWGQGTQVTVSS”, the “polyreactivity (PSR sort gate)” value was “low polyreactivity”. The entry for “QVQLVESGGRLVQAGGILRLSCAASGRIFSANAMGWYRQAPGKERELVAAITSSGGSTYYADSVKGRFTISRDNAKNTVYLQMNSLKPEDTAVYYCAAESAAYGGGTSDAGYESDYLGQGTQVTVSS” is “low polyreactivity”; for “QVQLVESGGGLVQAGGSLRFSCAASGSIFPYYAMGWYRQAPGKERELVAAISDSGDSTYYADSVKGRFTISRDNAKNTVYLQMNSLKPEDTAVYYCAADQTSSYYDPWGDYWGQGTQVTVSS” it is “low polyreactivity”; for “QVQLVESGGGIVQAGGSLRLSCAASGRTFAYNVMGWYRHAPGKERELVAGISFGAGSTYYADSVKGRFTISRDNAKNTVYLQMNSLKPEDTAVYYCATRRRGTRYPRGYDYWGQGTQVTVSS” it is “high polyreactivity”. The entry for “QVQLVESGGGLVQAGGSLRLSCAASGRILYYYAMGWYRQAPGKERELVAAISWSGGSTYYADSVKGRFTISRDNAKNTVYLQMNSLKPEDTAVYYCAADWRGYRLERAYDYWGQGTQVTVSS” is “low polyreactivity”; for “QVQLVESGGGLVQAGGSLRLSCAASGRTFALNALGWSRQAPGKERELVAAISWSSGRTYYADSVKGRFTISRDNAKNTVYLQMNSLKPEDTAVYYCAALVAHKGDYWGQGTQVTVSS” it is “high polyreactivity”. The entry for “QFQLVESGVGLVQAGGSLRLSCAASGRTSGSYAMGWYRQAPGKERELVAVITTSDGSTYYADSVKGRFTISRDNAKNTVYLQMNSLKPEDTEVYYCNVDYPNLWYDSYYYWGQGTEVTVSS” is “low polyreactivity”; for “QVQLVESGGGLVQAGGSLRLSCAASGRIFGVNAMGWYRQAPGKERELVADITGSGGSTYYADSVKGRFTISRDNAKNTVYLQMNCLKAEDTAVYYCATRWIGYTSQWDHFEYDYWGQGTQVTVSS” it is “low polyreactivity”. On to “QDQLVESGGGLVQAGGSLRLSCAASGSNFPTNAMGWYRPAPGKERELVADITIRGGGTSYADSVKGRFTISRDNAKNTVYLHMNSLKPEDTAFYYCARSKSTELKRLLFDSWGQGTQVTVSS”, for which the “polyreactivity (PSR sort gate)” value is listed as “low polyreactivity”. On to “QVQLQESGSGLVQAGGSLRLSCAASGAIFPAYLMGWYRQPPGKERELVAGISYGSITYCADSVKGRFNISRDNAKNTVYLQMNSLKPEDTAVYYCAVWRPGGDEYYYWGQGTQVTVSS”, for which the “polyreactivity (PSR sort gate)” value is “low polyreactivity”.

Turning to “QVQLVESGGGLVQAGGSLRLSCAASGSIFYYAMGWYRQAPGKERELVAAITWRGGRTYYADSVKGRFTISRDNAKNTVYLQMNSLKPEDTAVYDFNAVAPGKYNLWGQGTQVTVSS”, the “polyreactivity (PSR sort gate)” value is “high polyreactivity”. The entry for “QVQLVESGGGLVQAGGSLRLSCAASGIIFRYNTMGWYRQAPGKERELVAAISGGGRTYYADSVKGRFTISRDNAKNTVYLQMNSLKPEDTAVYYCAARYRTSGLDNYWGQGTQVTVSS” is “high polyreactivity”; for “QVQLLESGGGLVQAGGSLRLSCAASGSIFLLNAMGWYRQAPGKERELVASISRGGVRTNYADSEKGRFTISRDNAKNTVYLQMISLKPEDTAVYYCAAGTRPFGYRRDYWGQGTQVTVSS” it is “high polyreactivity”.

Turning to “QVQLVESGGGLVQAGGSLRLSCAASGSIFGYYTMGWYIQAPGKERELVATITSGGSTYYADSVKGRFTISRDNAKNSVSLQMNSLKPEDTAVYYCNADRYWRVYWGQGTQVTVSS”, the “polyreactivity (PSR sort gate)” value was “high polyreactivity”. Take “QVQLVESGGGLVQAGGSLRLSCAASGSIFPYYTMGWYRQAPGKERELVAAISGSGGSTYYADSVKGRFTISRDNAKNTVYLQMNSLKPEDTAVYYCAAYRRTWFDYWGQGTQVNVSS”: the “polyreactivity (PSR sort gate)” value was “high polyreactivity”. On to “QVQLVESGGGLVQAGGSLRLSCAASGRTFWSNAMGWYRQAPGKEREFVAVISRSGSTTYYADSVKGRYTISRDNAKKTVYLQMISLKPEDTAFYNCAADRVRSYFSRYYSTPLDYYWGQGTQVTVSS”, for which the “polyreactivity (PSR sort gate)” value was “high polyreactivity”.

With “QVQHEDSGGGLVQAGGSLRLSCAASGRIFLYYAMGWYRQAPGKERELVAAISSGTSTYYADSVKGRFTISRDNAKNTVYLQMNSLKPEDTAVYYCAAYYYSYPTNGGYGYWGQGTQVTVSS”, the “polyreactivity (PSR sort gate)” value is “low polyreactivity”. With “QVQLVESGGGLVQAGGSLRLSCAASGLTFYYYAMGWYRQAPGKERELVASINRSSGSTYYADSVKGRFTISRDNAKNTVYLQMNSLKPEDTAVYYCAVKKHWPHPAYTRYYKYYYWGQGTQVTVSS” the entry was “high polyreactivity”; with “QVQLVESGGGLVQAGGSLRLSCAASASIFYRYAMGWFRQAPGKERELVAAISWRVTSTYYADSVKGRFTISRDNSKNTVYLQMNSLKPEDTAVYYCATAGTYTGGEGYWGQGTQVTVSS”, “high polyreactivity”. With “QVQLVESGGGLVQAGGSLRLSCAASGRIFYYNAMGWYRQAPGKEREFVAAITYRGGSTYYADSVKGRFTISRDNAKNTVYLQMNSLKPEDTAVYYCAARSAWQVAPRGRTVAFDYWGQGTQLTVSS” the entry was “high polyreactivity”. The entry for “QVQLVETGGGLVQAGGSLRLSCAASGFNFGPYDIGWYIQAPGKERELVAAITDSSGSTHYADSVKGRFTISRDNAKNTVYLQMNSLKPEDTAVYYWAADDSSRTTYDYWGQGTQVTVSS” is “low polyreactivity”; for “QVQLVESGGGLVQAGGSLRLSCAPSGSTFTSYAMGWYRQAPGKERELVAAITYGSGTTYADSVKGRFTISRDNAKNTVYLQMNSLKPEDTAVYYCAADFYYPVLGHGFPTYEYDYWGQGTQVTVSS” it is “low polyreactivity”.
